Experiments:
[1] = tested on: phosphatidylcholine (PC) liposomes; assay: Yeast proteome chip probed with PC liposomes; conditions: liposome binding signal on yeast proteome chip, Cy3-streptavidin detection
How it was run: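 Yeast proteome chips incubated 1 h at RT with sonicated liposomes of PC containing 1% (w/w) biotin-DHPE, plus 5% (w/w) of the indicated phosphoinositide where applicable. After PBS washes, bound liposomes detected with Cy3- or Cy5-streptavidin (>30 min, RT, dark) and fluorescence scanned.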

PI(3,4,5)P3 liposomes = assay: Yeast proteome chip probed with PI(3,4,5)P3 liposomes; conditions: liposome binding signal on yeast proteome chip, Cy3-streptavidin detection
PI(3,4)P2 liposomes = assay: Yeast proteome chip probed with PI(3,4)P2 liposomes; conditions: liposome binding signal on yeast proteome chip, Cy3-streptavidin detection
PI(3)P liposomes = assay: Yeast proteome chip probed with PI(3)P liposomes; conditions: liposome binding signal on yeast proteome chip, Cy3-streptavidin detection
PI(4,5)P2 liposomes = assay: Yeast proteome chip probed with PI(4,5)P2 liposomes; conditions: liposome binding signal on yeast proteome chip, Cy3-streptavidin detection
PI(4)P liposomes = assay: Yeast proteome chip probed with PI(4)P liposomes; conditions: liposome binding signal on yeast proteome chip, Cy3-streptavidin detection
[2] = tested on: phospholipids (phosphatidylinositols vs phosphatidylcholine); assay: Proteome chip lipid-binding screen, overall analysis of six liposomes (PI/PC specificity); conditions: for preferential binding of particular phosphatidylinositol lipids: compared with phosphatidylcholine; for identified as lipid-binding interactor: phospholipid liposome probes
Excerpt: FIGS. 4A-4D. Analysis of the phosphatidylinositol-binding proteins. To determine the phosphatidylinositol (“PI”)-binding specificity of 150 positive proteins, their binding signals were normalized against the corresponding binding signals of phosphatidylcholine (“PC”). Based on the ratios (“PI/PC”), the proteins were grouped into four categories: (A) 30 strong and specific, (B) 43 strong and nonspecific, (C) 19 weak and specific, and (D) 58 weak and nonspecific phosphatidylinositol-binding proteins. The intensity represents the PI/PC signal ratio as shown by the scale in the figure. The column, labeled “10^n” to the right of the PI/PC binding ratios indicates the maximum binding signal intensity (open boxes) and its confidence interval (solid horizontal lines); the numbers indicate the log of the values. Boxes in the three columns to the right of the confidence interval column indicate membrane-associated proteins (“Membrane”), kinases (“Kinase”), and uncharacterized ORFs (“Unknown”), respectively.
To identify PI-binding proteins in yeast, liposomes were used as probes because the liposome provides the most relevant physiological condition to assay the interactors. Six types of liposomes were used. Each contains phosphatidylcholine (“PC”) with 1% (w/w) N-(biotinoyl)-1,2-dihexadecanoyl-sn-glycero-3-phosphoethanolamine, triethylammonium salt (biotin DHPE). The biotinylated lipid serves as a label that can be detected by Cy3-streptavidin (21). In addition to PC, the five other liposomes contain either 5% (w/w) PI(3)P, PI(4)P, PI(3,4)P2, PI(4,5)P2, or PI(3,4,5)P3 (FIG. 3A).
The protein-liposome interaction was assayed as follows. Appropriate amounts of each lipid in chloroform were mixed and dried under nitrogen. The lipid mixture was resuspended in TBS buffer by vortexing. The liposomes were created by sonication. Blocked proteome chips were washed three to five times in PBS buffer, and the extra liquid on the glass surface was removed by tapping the slides vertically on a KIMWIPE™. 200 μl of liposome solution was added to the proteome chip and immediately covered by a hydrophobic plastic cover slip (GRACE BIO-LAB™, USA). After trapped air bubbles were removed, the chip was incubated in a humidity chamber at RT for one hour. To remove the cover slip, the chip was immersed into large volume of PBS buffer (50 ml), so that the slip would float away. The chip was then moved to a second PBS bath (>50 ml) and washed 3×5 min with shaking at RT. After removing extra liquid on the surface of the chip, about 100 μl of Cy3 or Cy5 conjugated streptavidin (PIERCE™, USA; 1:2000 to 1:4000 dilution) was added to the surface and covered by a hydrophobic plastic cover slip (GRACE BIO-LABS™, USA). The chip was incubated for greater than 30 min in the dark at RT. The chip was then washed as described above. To completely remove the liquid on the chip, the chip was spun to dryness at 1500-2000 rpm for 5-10 min at RT.
An algorithm was devised to assist in the identification of positive signals (42). Fifty-two (35%) of the interactors (i.e., lipid-binding proteins) correspond to uncharacterized proteins thus ascribing the first biochemical activities to those proteins.
The interactors (i.e., phospholipid-binding proteins) were grouped in several ways (42). First, the interactors were sorted according to whether they bound lipids strongly or weakly, based on the phospholipid-binding signal relative to the amount of GST (FIG. 4). Slightly more (72%) of the strong lipid binding proteins (FIGS. 4A and 4B) were characterized relative to the weakly binding proteins (54%) (FIGS. 4C and 4D). Many of the strong lipid-binding proteins are membrane-associated, or are predicted to be associated with membranes, whereas fewer of the weaker binding proteins appear to be associated with membranes (FIG. 4, “Membrane” column). […] Moreover, thirteen of the seventeen protein kinases bind very strongly to the phospholipids. […]

Molecule | PC [1] | PI(3, 4, 5)P3 (PI(3,4,5)P3 liposomes) | PI(3, 4)P2 (PI(3,4)P2 liposomes) | PI(3)P (PI(3)P liposomes) | PI(4, 5)P2 (PI(4,5)P2 liposomes) | PI(4)P (PI(4)P liposomes) | preferential binding of particular phosphatidylinositol lipids [2] | identified as lipid-binding interactor [2]
SPS2: yeast sporulation protein of prospore membrane, GST-HisX6 fusion (protein, UniProt P08459 57-475, looked up, GST-His6 tag, yeast sporulation protein of prospore membrane, GST-HisX6 fusion) Sporulation-specific protein 2: AVEPNGGPNILDHNIMLVNTNATIPKKEQTDFEVISPTKQTQVDEDCKKGLYHIENAGNLIELQAKCWKVVGNIEISSNYSGSLIDLGLIREIEGDLIIKNNKHIFRIQGYNLESLGKLELDSLTSFVSLDFPALKEVETVDWRVLPILSSVVINGNIKKIKNIIISDTALTSIDYFNNVKKVDIFNINNNRFLENLFASLESVTKQLTVHSNAKELELDLSNLHTVENMTIKDVSEIKLAKLSSVNSSLEFIENQFSSLELPLLAKVQGTLGLIDNKNLKKLNFSNATDIQGGLMIANNTELAKIDFFPKLRQIGGAIYFEGSFDKIDLPELKLVKGSAYIKSSSEELNCEEFTSPKAGRSIIRGGKIECTSGMKSKMLNVDEEGNVLGKQETDNDNGKKEKGKNGAKSQGSSKKMEN | 44.61 | 25.31 | 54.63 | 18.50 | 64.02 | 47.47 | preferentially interacts with PI(3)P | –
GPM3: yeast phosphoglycerate mutase, GST-HisX6 fusion (protein, UniProt Q12326 1-303, looked up, GST-His6 tag, yeast phosphoglycerate mutase, GST-HisX6 fusion) Phosphoglycerate mutase 3: MTVTDTFKLFILRHGQSELNSENIFCGWIDAQLTEKGKSQARHSAKLIKQFCDSNNISLPQIGYTSRLIRTQQTMDVILEELGLKHTNYVITTNTNIKEELQDTRFEGSMPVLQTWRLNERHYGAWQGQRKPDILKEYGKEKYMYIRRDYNGKPPKVNLNLEMVQEENDQGSSTGYDFKEPNRHLKYGPEEKANERLPESESLCEVVVRLKPFLNNVVLSTANKISQESCVIVGHGSSVRSLLKVLEGISDEDIKDVDIPNGIPLVIELDRDNYSFVRKFYLDPESAKVNAQMVRDEGFEKNP | 137.64 | 66.04 | 85.40 | 42.50 | 112.57 | 85.35 | – | identified
SNF1: yeast protein kinase, regulator of glucose metabolism, GST-HisX6 fusion (protein, UniProt P06782 1-633, looked up) Carbon …: MSSNNNTNTAPANANSSHHHHHHHHHHHHHGHGGSNSTLNNPKSSLADGAHIGNYQIVKTLGEGSFGKVKLAYHTTTGQKVALKIINKKVLAKSDMQGRIEREISYLRLLRHPHIIKLYDVIKSKDEIIMVIEYAGNELFDYIVQRDKMSEQEARRFFQQIISAVEYCHRHKIVHRDLKPENLLLDEHLNVKIADFGLSNIMTDGNFLKTSCGSPNYAAPEVISGKLYAGPEVDVWSCGVILYVMLCRRLPFDDESIPVLFKNISNGVYTLPKFLSPGAAGLIKRMLIVNPLNRISIHEIMQDDWFKVDLPEYLLPPDLKPHPEEENENNDSKKDGSSPDNDEIDDNLVNILSSTMGYEKDEIYESLESSEDTPAFNEIRDAYMLIKENKSLIKDMKANKSVSDELDTFLSQSPPTFQQQSKSHQKSQVDHETAKQHARRMASAITQQRTYHQSPFMDQYKEEDSTVSILPTSLPQIHRANMLAQGSPAASKISPLVTKKSKTRWHFGIRSRSYPLDVMGEIYIALKNLGAEWAKPSEEDLWTIKLRWKYDIGNKTNTNEKIPDLMKMVIQLFQIETNNYLVDFKFDGWESSYGDDTTVSNISEDEMSTFSAYPFLHLTTKLIMELAVNSQSN | 1774.37 | 560.70 | 298.26 | 202.00 | 423.73 | 1795.06 | – | identified
STP22: yeast protein required for vacuolar targeting of plasma membrane proteins, GST-HisX6 fusion (protein, UniProt P25604 1-385, looked up, GST-His6 fusion tag) Suppressor protein STP22 of …: MSANGKISVPEAVVNWLFKVIQPIYNDGRTTFHDSLALLDNFHSLRPRTRVFTHSDGTPQLLLSIYGTISTGEDGSSPHSIPVIMWVPSMYPVKPPFISINLENFDMNTISSSLPIQEYIDSNGWIALPILHCWDPAAMNLIMVVQELMSLLHEPPQDQAPSLPPKPNTQLQQEQNTPPLPPKPKSPHLKPPLPPPPPPQPASNALDLMDMDNTDISPTNHHEMLQNLQTVVNELYREDVDYVADKILTRQTVMQESIARFHEIIAIDKNHLRAVEQAIEQTMHSLNAQIDVLTANRAKVQQFSSTSHVDDEDVNSIAVAKTDGLNQLYNLVAQDYALTDTIECLSRMLHRGTIPLDTFVKQGRELARQQFLVRWHIQRITSPLS | 2.93 | 22.05 | 8.79 | 51.50 | −8.27 | 10.89 | preferentially binds PI(4)P | –
ATP1: yeast alpha subunit of F1-ATP synthase, GST-HisX6 fusion (protein, UniProt P07251 36-545, looked up, GST-His6 tag, yeast alpha subunit of F1-ATP synthase, GST-HisX6 fusion) ATP synthase subunit alpha, …: ASTKAQPTEVSSILEERIKGVSDEANLNETGRVLAVGDGIARVFGLNNIQAEELVEFSSGVKGMALNLEPGQVGIVLFGSDRLVKEGELVKRTGNIVDVPVGPGLLGRVVDALGNPIDGKGPIDAAGRSRAQVKAPGILPRRSVHEPVQTGLKAVDALVPIGRGQRELIIGDRQTGKTAVALDTILNQKRWNNGSDESKKLYCVYVAVGQKRSTVAQLVQTLEQHDAMKYSIIVAATASEAAPLQYLAPFTAASIGEWFRDNGKHALIVYDDLSKQAVAYRQLSLLLRRPPGREAYPGDVFYLHSRLLERAAKLSEKEGSGSLTALPVIETQGGDVSAYIPTNVISITDGQIFLEAELFYKGIRPAINVGLSVSRVGSAAQVKALKQVAGSLKLFLAQYREVAAFAQFGSDLDASTKQTLVRGERLTQLLKQNQYSPLATEEQVPLIYAGVNGHLDGIELSRIGEFESSFLSYLKSNHNELLTEIREKGELSKELLASLKSATESFVATF | 0.29 | 26.44 | 11.93 | – | 46.38 | 28.09 | preferentially binds PI(3,4)P2 | –
PYK1: yeast pyruvate kinase, GST-HisX6 fusion (protein, UniProt P00549 2-500, looked up, GST-HisX6 tag, yeast pyruvate kinase, GST-HisX6 fusion) Pyruvate kinase 1: SRLERLTSLNVVAGSDLRRTSIIGTIGPKTNNPETLVALRKAGLNIVRMNFSHGSYEYHKSVIDNARKSEELYPGRPLAIALDTKGPEIRTGTTTNDVDYPIPPNHEMIFTTDDKYAKACDDKIMYVDYKNITKVISAGRIIYVDDGVLSFQVLEVVDDKTLKVKALNAGKICSHKGVNLPGTDVDLPALSEKDKEDLRFGVKNGVHMVFASFIRTANDVLTIREVLGEQGKDVKIIVKIENQQGVNNFDEILKVTDGVMVARGDLGIEIPAPEVLAVQKKLIAKSNLAGKPVICATQMLESMTYNPRPTRAEVSDVGNAILDGADCVMLSGETAKGNYPINAVTTMAETAVIAEQAIAYLPNYDDMRNCTPKPTSTTETVAASAVAAVFEQKAKAIIVLSTSGTTPRLVSKYRPNCPIILVTRCPRAARFSHLYRGVFPFVFEKEPVSDWTDDVEARINFGIEKAKEFGILKKGDTYVSIQGFKAGAGHSNTLQVSTV | 6.46 | −1.12 | −5.02 | −9.00 | −13.06 | 10.45 | – | identified

Reference: patent US20050182242A1, “Global analysis of protein activities using proteome chips” (priority 2001, published 2005)
